From patent US20190300590A1 (PROTAGONIST THERAPEUTICS, published 2019)
*1 amine or outer side, *2 acyl side, *3 side chain or, on linkers, in order; H or OH if unused. Bridges are numbered along the chain shown (N, C = ends). Primed or numbered codes have the meaning given here. [ ]: non-standard residue; d: D form. Phe(4-OMe)(3) = O-methyl-L-tyrosine (4-methoxy-L-phenylalanine), COc1ccc(C[C@H](N[*:1])C(=O)[*:2])cc1; Phe(4-OMe) = 4-methoxy-L-phenylalanine (O-methyl-L-tyrosine), COc1ccc(C[C@H](N[*:1])C(=O)[*:2])cc1; Phe(Bzl) = read as Phe(4-OBzl), O-benzyl-L-tyrosine, O=C([C@H](Cc1ccc(OCc2ccccc2)cc1)N[*:1])[*:2]; Phe(4-OMe)(4) = O-methyl-L-tyrosine, COc1ccc(C[C@H](N[*:1])C(=O)[*:2])cc1; Phe(4-guanidino) = N=C(N)Nc1ccc(C[C@H](N)C(=O)O)cc1; Phe(3,4-Cl2) = N[C@@H](Cc1ccc(Cl)c(Cl)c1)C(=O)O; Phe(4-CONH2) = NC(=O)c1ccc(C[C@H](N)C(=O)O)cc1; Phe(4-COOH) = N[C@@H](Cc1ccc(C(=O)O)cc1)C(=O)O; Tyr(Ph) = N[C@@H](Cc1ccc(Oc2ccccc2)cc1)C(=O)O; 1Nal = N[C@@H](Cc1cccc2ccccc12)C(=O)O; 2Nal = N[C@@H](Cc1ccc2ccccc2c1)C(=O)O; AEF = NCCOc1ccc(C[C@H](N)C(=O)O)cc1; αMeK = C[C@](N)(CCCCN)C(=O)O; Orn = NCCC[C@H](N)C(=O)O; Abu = CC[C@H](N)C(=O)O; Dap = NC[C@H](N)C(=O)O

T1: IL23R_huFC (human, UniProt Q5VWK5 24-353)
T1 sequence (looked up): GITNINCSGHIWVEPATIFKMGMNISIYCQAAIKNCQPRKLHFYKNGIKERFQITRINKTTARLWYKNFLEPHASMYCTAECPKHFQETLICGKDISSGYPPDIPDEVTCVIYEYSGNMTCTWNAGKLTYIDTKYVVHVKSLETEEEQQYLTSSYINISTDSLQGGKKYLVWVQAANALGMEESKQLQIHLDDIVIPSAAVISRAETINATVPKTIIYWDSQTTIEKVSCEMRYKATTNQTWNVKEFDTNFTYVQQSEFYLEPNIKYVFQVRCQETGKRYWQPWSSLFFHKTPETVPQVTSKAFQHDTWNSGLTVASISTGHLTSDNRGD

T2: Rat IL-23R_huFC (rat, UniProt F1LX96 39-369)
T2 sequence: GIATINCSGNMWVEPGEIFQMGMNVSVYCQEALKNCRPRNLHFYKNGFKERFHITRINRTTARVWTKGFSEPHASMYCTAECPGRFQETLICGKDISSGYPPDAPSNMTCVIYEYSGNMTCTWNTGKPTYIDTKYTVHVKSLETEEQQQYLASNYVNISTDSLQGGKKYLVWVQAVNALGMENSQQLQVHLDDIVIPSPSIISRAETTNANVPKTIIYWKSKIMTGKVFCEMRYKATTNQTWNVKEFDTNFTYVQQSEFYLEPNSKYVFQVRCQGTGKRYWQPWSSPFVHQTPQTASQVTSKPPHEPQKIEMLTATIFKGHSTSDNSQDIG

B1: succinic acid-[Pen]-QTWQ[Pen]-[Phe(4-OMe)]-[2-Nal]-[α-MeLys]-[Lys(Ac)]-NG-NH2 (peptide)
peptide: XQTWQXFXKKNG
modifications: N-terminal succinic acid; Pen-Pen disulfide; Phe(4-OMe); 2-Nal; α-MeLys; Lys(Ac); NH2
B2: 4-methylmorpholine-2,6-dione-[Pen]-QTWQ[Pen]-[Phe(4-OMe)]-[2-Nal]-[α-MeLys]-[Lys(Ac)]-NG-NH2 (peptide)
peptide: XQTWQXFXKKNG
modifications: N-terminal 4-methylmorpholine-2,6-dione; Pen-Pen disulfide; Phe(4-OMe); 2-Nal; α-MeLys; Lys(Ac); NH2

Target: T1, IL23R_huFC
Assay: human ELISA vs IL-23

IC50	Binder
100 to 1000 nM	Ac-[Abu]QTWQC[Phe(3,4-Cl2)][2Nal][αMeK]K(Ac)NG-NH2 (thioether 1-6) [Ac-Cyclo-[[Abu]-QTWQC]-Phe(3,4-Cl2)[2-Nal][α-MeLys]-Lys(Ac)]NG-NH2]
100 to 1000 nM	XQTWQCFXXKNG (as bracketed in name; thioether cyclo) [Ac-Cyclo-[[Abu]-QTWQC]-[Phe(4-OMe)]-[2-Nal]-[Orn]-[Lys(Ac)]-NG-NH2]
100 to 1000 nM	Ac-[Abu]QTWQC[AEF]W[Orn][Dap](Ac)NG-NH2 (thioether 1-6) [Ac-Cyclo-[[Abu]-QTWQC]-[Phe[4-(2-aminoethoxy)]]-W-[Orn]-[Dap(Ac)]-NG-NH2]
100 to 1000 nM	Ac-[Abu]QT[1Nal]QC[Phe(4-OMe)(4)][2Nal][αMeK]K(Ac)NG-NH2 (thioether 1-6) [Ac-Cyclo-[[Abu]-QT-[1-Nal]-QC]-[Phe(4-OMe)]-[2-Nal]-[α-MeLys]-[Lys(Ac)]-NG-NH2]
100 to 1000 nM	Ac-[Abu][Dap]TWQC[AEF][Tyr(Ph)][αMeK]K(Ac)NG-NH2 (thioether 1-6) [Ac-Cyclo-[[Abu]-[Dap]-TWQC]-[Phe[4-(2-aminoethoxy)]]-[Phe(4-Phenoxy)]-[α-MeLys]-[Lys(Ac)]-NG-NH2]
100 to 1000 nM	Ac-[Abu]QTWQC[AEF]W[Orn][Dap]NG-NH2 (thioether 1-6) [Ac-Cyclo-[[Abu]-QTWQC]-[Phe[4-(2-aminoethoxy)]]-W-[Orn]-[Dap]-NG-NH2]
100 to 1000 nM	Ac-[Abu]QTWQC[Phe(4-OMe)]W[αMeK]K(Ac)NGE-NH2 (thioether 1-6) [Ac-Cyclo-[[Abu]-QTWQC]-[Phe(4-OMe)]-W-[α-MeLys]-[Lys(Ac)]-NGE-NH2]
100 to 1000 nM	Ac-[Abu][Dap]TWQC[AEF][AEF][αMeK]K(Ac)NG-NH2 (thioether 1-6)
100 to 1000 nM	Ac-[Abu]QTWQC[AEF][Phe(4-CONH2)][αMeK]K(Ac)NG-NH2 (thioether 1-6) [Ac-Cyclo-[[Abu]-QTWQC]-[Phe[4-(2-aminoethoxy)]]-[Phe(4-CONH2)]-[α-MeLys]-[Lys(Ac)]-NG-NH2]
100 to 1000 nM	Ac-[Abu]QTWQC[Phe(4-OMe)(3)][Phe(Bzl)][αMeK]ENG-NH2 (thioether 1-6) [Ac-Cyclo-[[Abu]-QTWQC]-[Phe(4-OMe)]-[Phe(Bzl)]-[α-MeLys]-ENG-NH2]
100 to 1000 nM	Ac-[Abu]QTWQC[Phe(4-OMe)(3)][Phe(4-guanidino)][αMeK]ENG-NH2 (thioether 1-6) [Ac-Cyclo-[[Abu]-QTWQC]-[Phe(4-OMe)]-[Phe(4-guanidino)]-[α-MeLys]-ENG-NH2]
100 to 1000 nM	Ac-[Abu]QTWQC[AEF][Phe(4-COOH)][αMeK]K(Ac)NG-NH2 (thioether 1-6) [Ac-Cyclo-[[Abu]-QTWQC]-[Phe[4-(2-aminoethoxy)]]-[Phe(4-CO2H)]-[α-MeLys]-[Lys(Ac)]-NG-NH2]
100 to 1000 nM	Ac-[Abu]QT[2Nal]QC[Phe(4-OMe)(4)][2Nal][αMeK]K(Ac)NG-NH2 (thioether 1-6) [Ac-Cyclo-[[Abu]-QT-[2-Nal]-QC]-[Phe(4-OMe)]-[2-Nal]-[α-MeLys]-[Lys(Ac)]-NG-NH2]
100 to 1000 nM	XQTXQCFXKENG (as bracketed in name; thioether cyclo)
100 to 1000 nM	Ac-[Abu]STWQC[AEF][2Nal][αMeK]KNGGE-NH2 (thioether 1-6) [Ac-Cyclo-[[Abu]-STWQC]-[Phe[4-(2-aminoethoxy)]]-[2-Nal]-[α-MeLys]-KNGGE-NH2]
100 to 1000 nM	Ac-[Abu]QTWQC[Tyr(Ph)][2Nal][αMeK]K(Ac)NG-NH2 (thioether 1-6) [Ac-Cyclo-[[Abu]-QTWQC]-[Phe(4-Phenoxy)]-[2-Nal][α-MeLys]-[Lys(Ac)]-NG-NH2]

Target: T2, Rat IL-23R_huFC
Assay: rat IL-23R competitive binding ELISA

IC50	Binder
25 to 100 nM	B1
100 to 1000 nM	XQTWQXFXKKNG (Ac; Pen-Pen disulfide; Phe(4-OMe); 1-Nal; α-MeLys; Lys(Ac); NH2) [Ac-[Pen]-QTWQ-[Pen]-[Phe(4-OMe)]-[1-Nal]-[α-MeLys]-[Lys(Ac)]-NG-NH2]
25 to 100 nM	XRTWQXYWRKFGXK (Ac; Pen-Pen disulfide; AEA; (D)-Lys; NH2) [Ac-[Pen]-RTWQ-[Pen]-YWRKFG-[AEA]-[(D)-Lys]-NH2]
25 to 100 nM	XQTWQXFWKKNG (Ac; Pen-Pen disulfide; Phe(4-OMe); α-MeLys; Lys(Ac); NH2) [Ac-[Pen]-QTWQ-[Pen]-[Phe-(4-OMe)]-W-[α-MeLys]-[Lys(Ac)]-NG-NH2]
25 to 100 nM	B2
